Measurements: IntAct's records for PubMed 17803912

B1: Lymphocyte antigen 96 (Homo sapiens), Q9Y6Y9 (parent)
chain: MLPFLFFSTLFSSIFTEAQKQYWVCNSSDASISYTYCDKMQYPISINVNPCIELKRSKGLLHIFYIPRRDLKQLYFNLYITVNTMNLPKRKEVICRGSDDDYSFCRALKGETVNTTISFSFKGIKFSKGKYKCVVEAISGSPEEMLFCLEFVILHQPNSN

Variants of: B1
Conditions: with tlr4_human TLR4, O00206
Sequence of tlr4_human TLR4, O00206 (O00206 whole entry): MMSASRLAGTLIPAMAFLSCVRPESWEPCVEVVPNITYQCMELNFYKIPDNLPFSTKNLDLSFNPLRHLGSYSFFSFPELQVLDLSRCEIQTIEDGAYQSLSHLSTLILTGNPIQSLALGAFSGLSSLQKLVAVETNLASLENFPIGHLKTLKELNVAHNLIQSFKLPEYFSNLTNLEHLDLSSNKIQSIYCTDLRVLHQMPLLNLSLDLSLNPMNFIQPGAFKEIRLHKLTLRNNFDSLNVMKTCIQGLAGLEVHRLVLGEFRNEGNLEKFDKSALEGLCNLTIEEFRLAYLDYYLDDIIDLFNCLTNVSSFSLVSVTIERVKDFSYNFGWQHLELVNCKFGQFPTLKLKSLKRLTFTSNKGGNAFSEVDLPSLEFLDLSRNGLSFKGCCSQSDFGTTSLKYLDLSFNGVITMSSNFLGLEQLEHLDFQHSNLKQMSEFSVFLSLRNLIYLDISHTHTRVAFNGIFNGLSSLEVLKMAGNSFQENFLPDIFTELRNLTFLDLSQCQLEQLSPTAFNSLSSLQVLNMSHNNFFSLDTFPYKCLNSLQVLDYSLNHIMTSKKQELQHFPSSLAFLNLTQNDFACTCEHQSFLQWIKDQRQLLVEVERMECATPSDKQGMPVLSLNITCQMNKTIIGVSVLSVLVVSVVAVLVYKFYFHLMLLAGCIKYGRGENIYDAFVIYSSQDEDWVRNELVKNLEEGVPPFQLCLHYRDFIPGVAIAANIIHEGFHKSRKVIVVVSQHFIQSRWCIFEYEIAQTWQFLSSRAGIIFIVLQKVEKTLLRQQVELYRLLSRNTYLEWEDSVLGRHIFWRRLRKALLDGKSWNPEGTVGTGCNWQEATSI

Q: MLPFLFFSTLFSSIFTEAQKQYWVCNSSDASISYTYCDKMQYPISINVNPCIELKRSKGLLHIFYIPRRDLKQLYFNLYITVNTMNLPKRKEVICRGSDDDYSFCRALKGETVNTTISFSFKGIKFSKGKYKCVVEAISGSPEEMLFCLEFVILAQPNSN [H155A] was tested. Which “effect of a mutation on the interaction” value did it give?
A: disrupting interaction

Q: With MLPFLFFSTLFSSIFTEAQKQYWVCNSSDASISYTYCDKMQYPISINVNPCIELKRSKGLLHIFYIPRRDLKQLYFNLYITVNTMNLPKRKEVICRGSDDDYSFCRALKGETVNTTISFSFKGIKASKGKYKCVVEAISGSPEEMLFCLEFVILHQPNSN [F126A] as the variant, how does the “effect of a mutation on the interaction” value read?
A: disrupting interaction
